Biological target: T1, recombinant active heparanase (Homo sapiens, UniProt Q9Y251, DEL111-157/INS109GSGSG)
T1 sequence (Q9Y251 with tags, fused parts or gaps INS109GSGSG/DEL111-157): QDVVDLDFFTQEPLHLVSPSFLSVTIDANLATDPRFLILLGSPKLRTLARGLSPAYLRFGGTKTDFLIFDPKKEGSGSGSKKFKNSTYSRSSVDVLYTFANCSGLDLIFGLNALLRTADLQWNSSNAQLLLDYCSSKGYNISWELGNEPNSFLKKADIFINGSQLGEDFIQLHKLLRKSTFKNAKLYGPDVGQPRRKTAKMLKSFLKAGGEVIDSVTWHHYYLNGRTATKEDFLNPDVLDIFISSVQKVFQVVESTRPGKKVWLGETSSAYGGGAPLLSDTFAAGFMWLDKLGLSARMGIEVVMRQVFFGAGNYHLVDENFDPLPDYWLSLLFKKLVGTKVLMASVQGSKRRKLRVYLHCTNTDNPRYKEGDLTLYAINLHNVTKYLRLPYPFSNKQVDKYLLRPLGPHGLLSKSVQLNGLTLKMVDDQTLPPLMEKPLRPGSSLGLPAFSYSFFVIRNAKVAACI
Assay: Heparanase enzymatic activity on 35S-labelled ECM, enzyme pre-incubated with antibody
Type: biochemical
Settings: antibody 2 μg/ml, heparanase 200 ng, pre-incubated 2 h on ice
Protocol: Cell lysates, heparanase activity and protein blotting. Preparation of cell lysates, protein blotting, and measurement of heparanase enzymatic activity were carried out as described (Vlodaysky I, et al. 1999, Nature Med 5(7):793-802; Arvatz et at, 2011, FASEB J 24(12):4969-4976). […] Likewise, cell lysates or tumor extracts were incubated (12 h, 37° C., pH 6.0) with the labeled ECM and sulfate labeled degradation fragments released into the incubation medium were analyzed by gel filtration on a Sepharose CL-6B column. Degradation fragments of HS side chains are eluted from Sepharose 6B at 0.5<Kav<0.8 (peak II, fractions 17-30). Nearly intact sulfate labeled HSPGs are eluted just after the void volume (Kav<0.2, peak I, fractions 1-10). […]
FIG. 2A. […] The mixture was then applied onto dishes coated with ^35S-labeled ECM and heparanase enzymatic activity was determined as described under “Materials and Methods”. […] Blood vessels density was quantified by counting the number of CD31-positive vessels per field and is presented graphically at the right second panel. At least 25 fields of each treatment were counted. […]
FIG. 3A. […] The mixture was then applied onto ^35S-labeled ECM-coated dishes and heparanase activity was determined as described above (lower panel). […] Quantification of the extent of CD45 staining is shown graphically in the lower panel. […]

B1: mAb 9E8: monoclonal IgM raised against KKDC peptide (Lys158-Asn171) of heparanase; VH SEQ ID NO: 7, VL SEQ ID NO: 8 (antibody)
VH: EVKLLESGGGLVQPGGSLKLSCAASGFDFSRYWMSWVRQAPGKGLEWIGEINPDSSTINYTPSLKDKFIISRDNAKNTLYLQMSKVRSEDTALYYCARRGYEGNYAMDYWGQGTSVTVSSESQSFPNVFPLVSCESPLSDKNLVAMGCLAR
VL: DIVMTQAAPSVPVTPGESVSISCRSSKSLLHSNGNTYLYWFLQRPGQSPQLLIYRMSNLASGVPDRFSGSGSGTAFTLRISRVEAEDVGVYYCMQHLEYPFTFGSGTKLEIKRADAAPTVSIFPPSSEQLTSGGASVVCFL
modifications: IgM constant regions
- neutralization of heparanase enzymatic activity: neutralizes heparanase enzymatic activity to magnitude comparable with the polyclonal antibody #1453

Reference: patent publication US11161912B2, “Heparanase-neutralizing monoclonal antibodies” (Technion Research & Development Foundation Limited, priority 2015, dated 2021)
